From article PMC8224240 (Molecular cell, 2020)

Target: T1, human Smc6 with Strep-tag II (StreptagII-Smc6) (human, UniProt Q96SB8 1-1091)
T1 sequence (looked up): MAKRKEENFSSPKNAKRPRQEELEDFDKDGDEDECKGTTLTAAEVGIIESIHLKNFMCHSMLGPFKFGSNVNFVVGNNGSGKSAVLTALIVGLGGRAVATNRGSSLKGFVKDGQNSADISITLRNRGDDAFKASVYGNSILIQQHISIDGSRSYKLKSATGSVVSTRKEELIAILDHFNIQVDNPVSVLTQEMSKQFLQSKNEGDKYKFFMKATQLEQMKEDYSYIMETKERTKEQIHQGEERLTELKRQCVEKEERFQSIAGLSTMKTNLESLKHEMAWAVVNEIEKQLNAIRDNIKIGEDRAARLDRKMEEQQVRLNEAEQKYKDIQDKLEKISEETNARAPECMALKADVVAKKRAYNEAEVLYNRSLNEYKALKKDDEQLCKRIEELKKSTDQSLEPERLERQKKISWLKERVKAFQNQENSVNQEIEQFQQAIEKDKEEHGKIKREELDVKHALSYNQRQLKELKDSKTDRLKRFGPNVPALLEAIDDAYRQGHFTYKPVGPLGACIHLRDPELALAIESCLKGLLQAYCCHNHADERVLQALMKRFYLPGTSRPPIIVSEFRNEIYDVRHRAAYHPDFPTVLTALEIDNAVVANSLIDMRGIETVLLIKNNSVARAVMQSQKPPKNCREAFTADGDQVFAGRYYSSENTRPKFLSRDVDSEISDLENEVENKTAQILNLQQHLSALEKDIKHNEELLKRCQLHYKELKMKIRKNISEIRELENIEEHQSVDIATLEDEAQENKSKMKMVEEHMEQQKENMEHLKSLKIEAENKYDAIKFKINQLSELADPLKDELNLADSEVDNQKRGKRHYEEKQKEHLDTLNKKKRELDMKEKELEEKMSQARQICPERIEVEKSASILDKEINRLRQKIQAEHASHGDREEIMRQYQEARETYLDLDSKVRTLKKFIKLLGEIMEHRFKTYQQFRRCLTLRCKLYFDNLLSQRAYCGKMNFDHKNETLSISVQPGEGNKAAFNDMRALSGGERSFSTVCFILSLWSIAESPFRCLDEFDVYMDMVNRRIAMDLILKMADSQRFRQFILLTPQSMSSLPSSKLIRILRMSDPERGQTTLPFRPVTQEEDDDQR
Experiment: tandem affinity co-purification

stoichiometry N: 1
B1: human Smc5 with poly-histidine tag (His-Smc5), subunit of the Smc5/6 dimer (natural protein, UniProt Q8IY18 1-1101, looked up)
chain: MATPSKKTSTPSPQPSKRALPRDPSSEVPSKRKNSAPQLPLLQSSGPFVEGSIVRISMENFLTYDICEVSPGPHLNMIVGANGTGKSSIVCAICLGLAGKPAFMGRADKVGFFVKRGCSRGMVEIELFRASGNLVITREIDVAKNQSFWFINKKSTTQKIVEEKVAALNIQVGNLCQFLPQDKVGEFAKLSKIELLEATEKSIGPPEMHKYHCELKNLREKEKQLETSCKEKTEYLQKMVQRNERYKQDVERFYERKRHLDLIEMLEAKRPWVEYENVRQEYEEVKLVRDRVKEEVRKLKEGQIPVTCRIEEMENERHNLEARIKEKATDIKEASQKCKQKQDVIERKDKHIEELQQALIVKQNEELDRQRRIGNTRKMIEDLQNELKTTENCENLQPQIDAITNDLRRIQDEKALCEGEIIDKRRERETLEKEKKSVDDHIVRFDNLMNQKEDKLRQRFRDTYDAVLWLRNNRDKFKQRVCEPIMLTINMKDNKNAKYIENHIPSNDLRAFVFESQEDMEVFLKEVRDNKKLRVNAVIAPKSSYADKAPSRSLNELKQYGFFSYLRELFDAPDPVMSYLCCQYHIHEVPVGTEKTRERIERVIQETRLKQIYTAEEKYVVKTSFYSNKVISSNTSLKVAQFLTVTVDLEQRRHLEEQLKEIHRKLQAVDSGLIALRETSKHLEHKDNELRQKKKELLERKTKKRQLEQKISSKLGSLKLMEQDTCNLEEEERKASTKIKEINVQKAKLVTELTNLIKICTSLHIQKVDLILQNTTVISEKNKLESDYMAASSQLRLTEQHFIELDENRQRLLQKCKELMKRARQVCNLGAEQTLPQEYQTQVPTIPNGHNSSLPMVFQDLPNTLDEIDALLTEERSRASCFTGLNPTIVQEYTKREEEIEQLTEELKGKKVELDQYRENISQVKERWLNPLKELVEKINEKFSNFFSSMQCAGEVDLHTENEEDYDKYGIRIRVKFRSSTQLHELTPHHQSGGERSVSTMLYLMALQELNRCPFRVVDEINQGMDPINERRVFEMVVNTACKENTSQYFFITPKLLQNLPYSEKMTVLFVYNGPHMLEPNTWNLKAFQRRRRRITFTQPS
